Test results taken from patent US20240425559A1 (UNIVERSITY OF PITTSBURGH OF THE COMMONWEALTH SYSTEM OF …, published 2024).

How the values were obtained:
[1] = target: T1, TGF-β type II receptor (TβRII) (UniProt P37173 38-159); assay: ITC, TβRII injected into the monomer, three replicates globally fit to a 1:1 model
T1 construct: A purified protein was injected in ITC and run on native gels; also called TbRII; transforming growth factor-β type II receptor
Description: (§1) FIG. 5: Binding of the engineered TGF-beta monomers (mmTGF-β2-7M, left; mmTGF-β2-7M2R, middle; and mmTGF-β2-2M-Del7-16, right) to the TGF-β type II receptor (TβRII) as detected by isothermal titration calorimetry (ITC). Upper panels depict the raw thermograms for three replicate titrations, while the lower panels depict the integrated heat (data points) for the three replicate titrations globally fit to a 1:1 binding isotherm (smooth line).
(§2) In order to evaluate the ability of the mmTGF-β2-7M variants described herein (mmTGF-β2-7M2R (SEQ ID NO: 4), mmTGF-β2-2M-Del7-16 (SEQ ID NO: 5), and mmTGF-β2-7M-PRDC (SEQ ID NO: 7)) to bind TβRII, isothermal titration calorimetry (ITC) and native gels were used. The ITC binding experiments were performed by injecting increasing amounts of TβRII into mmTGF-β2-7M2R (SEQ ID NO: 4) or mmTGF-β2-2M-Del7-16 (SEQ ID NO: 5), with mmTGF-β2-7M (SEQ ID NO: 3) used a reference control. These titrations yielded readily detectable isotherms with a large negative enthalpy and a near 1:1 binding stoichiometry (FIG. 5).

[2] = target: TGF-β type II receptor (TβRII) on HEK-293 CAGA-Luc TGF-β reporter cells (UniProt P37173 23-567, limits assumed); assay: cell-based or functional assay
Chain of TGF-β type II receptor (TβRII) on HEK-293 CAGA-Luc TGF-β reporter cells (P37173 23-567 limits assumed): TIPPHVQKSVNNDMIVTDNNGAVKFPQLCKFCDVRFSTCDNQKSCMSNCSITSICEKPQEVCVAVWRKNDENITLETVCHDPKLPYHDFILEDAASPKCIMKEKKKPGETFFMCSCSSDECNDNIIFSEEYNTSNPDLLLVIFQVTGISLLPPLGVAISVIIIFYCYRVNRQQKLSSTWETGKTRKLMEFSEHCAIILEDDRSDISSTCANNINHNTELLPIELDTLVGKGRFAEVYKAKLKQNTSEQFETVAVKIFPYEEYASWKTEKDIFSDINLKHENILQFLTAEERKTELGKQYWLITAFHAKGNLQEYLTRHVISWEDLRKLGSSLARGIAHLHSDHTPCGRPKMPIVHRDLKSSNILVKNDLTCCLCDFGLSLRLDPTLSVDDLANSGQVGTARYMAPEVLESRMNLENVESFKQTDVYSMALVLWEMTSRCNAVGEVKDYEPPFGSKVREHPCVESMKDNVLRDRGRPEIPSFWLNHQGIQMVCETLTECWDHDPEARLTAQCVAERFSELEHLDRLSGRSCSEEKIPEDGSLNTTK

[3] = target: T1, TGF-β type II receptor (TβRII); assay: ITC; TβRII injected into the monomer; three replicate titrations globally fit to a 1:1 binding isotherm
Description: as §1, §2

T1 sequence (P37173 38-159 limits assumed): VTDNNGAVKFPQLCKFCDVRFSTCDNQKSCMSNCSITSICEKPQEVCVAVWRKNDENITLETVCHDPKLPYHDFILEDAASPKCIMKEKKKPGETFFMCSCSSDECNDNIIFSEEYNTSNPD

Binder	Kd [1] [nM]	IC50, HEK-293 CAGA-Luc TGF-β reporter assay, stimulation with 10 pM TGF-β3 [2] [nM]	ΔG [3] [kcal/mol]	ΔH [3] [kcal/mol]	ΔS [3] [cal/mol•K]	fold change of IC50 relative to mmTGF-β2-7M, HEK-293 CAGA-Luc TGF-β reporter assay [2] [fold]
mmTGF-β2-7M (ligand, also called engineered human TGF-β2 monomer mmTGF-β2-7M; mmTGF-B27M) ALDAAYCFRNVQDNCCLRPLYIDFRKDLGWKWIHEPKGYNANFCAGACPYRASKSPSCVSQDLEPLTIVYYVGRKPKVEQLSNMIVKSCKCS	60.5	58.2	-9.85	-4.63	17.5	–
mmTGF-β2-2M-Del7-16 (ligand) ALDAAYVFRNVQDNCALRPLYIDFRRDLGWKWIHEPKGYNANFCAGACPYRASKSPSCVSQDLEPLTILYYIGRTPKIEQLSNMIVKSCKCS	80.1	111	-10	-7.67	–	–
mmTGF-β2-7M2R (ligand) ALDAAYCFRNVQDNCCLRPLYIDFRKDLGWKWIHEPKGYNANFCAGACPYRASKSPRCRSQDLEPLTIVYYVGRKPKVEQLSNMIVKSCKCS	75.1	53.3	-10.1	-10.5	-1.44	–
mmTGF-β2-7M-PRDC (ligand) KEVLASSQEALVVTERKYLKSDWCKLRPLYIDFRKDLGWKWIHEPKGYNANFCYGQCNSFYIPRHVKKEEDSFQSSAFCVSQDLEPLTIVYYVGRKPKVEQLSNMIVKSCRCMSV	–	282	–	–	–	~5
